# Variants at the floor of the assay were thinned out.
# B1: TPR 5TU (parent)
# chain: GGAUCUUCUCGAUCUAACAAAAAAGACAAAUCUGCCACAAAGCUUGAGAGCAUCUUCGGAUGCAGAGGCGGCAGCCUUCGGUGGCGCGAUAGCGCCAACGUUCUCAACUAUGACACGCAAAACGCGUGCUCCGUUGAAUGGAGUUUAUCAUG
# Variants of: B1
# Assay: polymerase ribozyme fitness, log enrichment relative to wild type (log ratio); higher = more active; in vitro selection for triplet polymerase activity
# Outline: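 Mutant libraries of each subunit of a heterodimeric triplet polymerase ribozyme were built by PCR and transcribed. Each library went through one round of in vitro selection in triplicate: annealing with biotinylated primer, partner subunit and triplets, frozen incubation at −7 °C, gel excision of extended constructs, streptavidin-bead capture and RT-PCR. Input and output libraries were Illumina-sequenced; only genotypes with ≥10 input reads and ≥1 read per output were kept. Fitness is log2(genotype enrichment/wild-type enrichment), using inverse-variance-weighted replicate averages.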
row,Variant,polymerase ribozyme fitness (log ratio)
1,GGAUCUUCUCGAUCUAACAAAAAAGACAAAUCUGCCACACAGCUUGAGAGCAUCUUCGGUUGCAGAGGCAGCAGCCUUCGGUGGCGCGAUAGCGCCAACGUUAUCAGCUAUGACACGCAAAACGCGUGCUCCGUUGAAUGGAGUUUAUCAUG [A40C A60U G70A C103A A107G],≤ -4.2
2,GGAUCUUCUCGAUCUAACAAAAAAGACAAAUCUGCCACACAGCUUGAGAGCAUCUUCGGAUGCAGAGGCGGCAGCCUUCGGUGGAGCGAUAGCGCCAACGUGCUCAACUAUGACACGCAAAACGCGUGCUCCGUUGAAUGGAAUUUAUCAUG [A40C C85A U102G G143A],≤ -4.2
3,GGAUCUUCUCGAUCUAACAAAAAAGACAAAUCUGCCACACAGCUUGAGAGCAUCUUCGGAUGCAGAGGCGGCAGACUUCGGUGGCGCGAUAGCGCCAACGUUCUCAACUAUGAGACGCAAAACGCGUGCUCCGUUGAAUGGAGUUUAUCAUG [A40C C75A C114G],≤ -4.2
4,GGAUCUUCUCGAUCUAACAAAAAAGACAAAUCUGCCACACAGCUUGAGAGCAUCUUCGGAUGCAGAGGCGGCAGCUUUCGGUGGCGCGAUAGCGCCAACGUUCUCAACUAUGACACGCAAAACGCGUGCUCCGUUGAAUGGAGUUUAUCAUG [A40C C76U],0.0931
5,GGAUCUUCUCGAUCUAACAAAAAAGACAAAUCUGCCACACCGCUUGAGAGCAUCUUCGGAUGCAGAGGCGGCAGCCUUCGGUGGCGCGAUAGCGCCAACGUUCUCAUGUAUGACACCCAAAACGCGUGCUCCGUUGAAUGGAGUUUAUCAUG [A40C A41C A107U C108G G117C],≤ -4.2
6,GGAUCUUCUCGAUCUAACAAAAAAGACAAAUCUGCCACUAAGCUUGAGAGCAUCUUCGGAUGCAGAGGCGGCAGCCUUCGGUGGCGCGAUAGCGCCAACGUUCUCAACUAUGACACGCAAAACGCGUGCUCCGUUGAAUGGAGCUUAUCAUG [A39U U144C],-2.52
7,GGAUCUUCUCGAUCUAACAAAAAAGACAAAUCUGCCACACAGCUUGAGAGCAUCUUCGGAUGCAGAGGCGGCAGCCUUCGGUGGCGCGAUAGCGCCAAUGUUCUCAACUAUGACACGCAAAACGCGUGCUCCGUUGAAUGGAGUUUAUCAUG [A40C C99U],0.519
8,GGAUCUUCUCGAUCUAACAAAAAAGACAAAUCUGCCACACAGCUUGAGAGCAUCUUCGGAUGCAGAGGCGGCAGCCUUCGGUGGCGCGAUAGUGCCAACGUUCUCAACUAUGACACGCAAAACGCGUGCUCCGUUGAAUGGAGUUUAUCAUG [A40C C93U],0.422
9,GGAUCUUCUCGAUCUAACAAAAAAGACAAAUCUGCCACUAAGCUUGAGAGCAUCUUCGGAAGCCGAGGCGGCAGCCUUCGGUGGCCCGAUAGCGCCAACGUUCUCAACUAUGACACGCAAAACGCGUGCUCCGUUGAAUGGAGUUUAUCAUG [A39U U61A A64C G86C],≤ -4.2
10,GGAUCUUCUCGAUCUAACAAAAAAGACAAAUCUGCCACUAAGCUUGAGAGCAUCUUCGGAUGCAGAGGCGGCAGCCUUCGGUGGCGCGAUAGCGCCAACGUCCUCAACUAUGACACGCAAAACGCGUGCUCCGUUGAAUGGAGUUUAUCAUG [A39U U102C],-4.01
11,GGAUCUUCUCGAUCUAACAAAAAAGACAAAUCUGCCACUAAGCUUGAGAGCAACUUCGGAUGCAGAGGCGGCAGCCUUCGGUGGCUCGAUAGCGCCAACGUUCUCAACUAUGACACGCAAAACGCGUGCUCCGUUGAAUGGAGUUUAUCAUG [A39U U53A G86U],-3.7
12,GGAUCUUCUCGAUCUAACAAAAAAGACAAAUCUGCCACUAAGCUUGAGAGCAUCUUCGGAUGCAGAGGCGGCAGCCUUCGGUGGCGCGAUAGCGCCAACGGUCUCAACUAUGACACGCAAAACGCGUGCUCCGUUGAAUGGAGUUUAUCAUG [A39U U101G],-2.05
13,GGAUCUUCUCGAUCUAACAAAAAAGACAAAUCUGCCACACAGCUUGAGAGCAUCUUCGGAUGCAGAGGCGGCAGCCUUCGGUGGGGCGAUAGCGCCAACGUUCUCAACUAUGACACGCAAAACGCGUGCUCCGUUGAAUGGAGUUUAUCAUG [A40C C85G],-1.95
14,GGAUCUUCUCGAUCUAACAAAAAAGACAAAUCUGCCACUAAGCUUGAGAGCAACUUCGGAUGCAGAGGCGGCAGCCUUCGGUGGAGCGAUAGCGCCAACGUUCUCAACUAUGACACGCAAAACGCGUGCUCCGUUGAAUGGAGUUUAUCAUG [A39U U53A C85A],≤ -4.2
15,GGAUCUUCUCGAUCUAACAAAAAAGACAAAUCUGCCACUAAGCUUGAGAGCAUCGUCUGAUGCAGAGGCGGCAGCCUGCGGUGGUGCGACAGCGCCAACGUUCUAAACUAUGACACGCAAAACGCGUGCUCCGUUUAAUGGCGUUUAUCAUG [A39U U55G G58U U78G C85U U90C C105A G136U A142C],≤ -4.2
16,GGAUCUUCUCGAUCUAACAAAAAAGACAAAUCUGCCACACAGCUUGAGAGUAUCUUCGGAUGCAGAGGCGGCAGCCUUCGGUGACGCGAUAGCGCCAACGUUCUCAACUAUGACACGCAAAACGCGUGCUCCGUUGAAUGGAGUUUAUCAUG [A40C C51U G84A],-0.15
17,GGAUCUUCUCGAUCUAACAAAAAAGACAAAUCUGCCACACAGCUUGAGAGCAUCUUCGGAUGCAGAGGCGGCAGCCUUCGGUGGCGCGAUAGAGCCAACGUUCUCAACUAUGACACGCAAAACGCGUGCUCCGUUGAAUGGAAUUUAUCAUG [A40C C93A G143A],-3.22
18,GGAUCUUCUCGAUCUAACAAAAAAGACAAAUCUGCCACUAAGCUUGAGAGCAUCUUCGGAGGCAGAGGCGGCAGCCUUCGGUGGUGCGAUAGUGCCAACGUUCUCAACUAUGACACGCAAAACGCGUGCUCCGAUGAAUGGAGUUUAUCAUG [A39U U61G C85U C93U U134A],≤ -4.2
19,GGAUCUUCUCGAUCUAACAAAAAAGACAAAUCUGCCACUAAGCUUGAGAGCAUCUUCGGAUGCAGAGGCGGCAGCCAUCGCUGGCGUGAUAGCGUCACCGUUCUCAACUAUGACACGCAAAACGCUUGCUCCGUUCAAUGGAGUUUAUCAUG [A39U U77A G81C C87U C95U A98C G126U G136C],≤ -4.2
